± gives the standard deviation of the averaged measurements.
These sequences were tested on ATP (assay: switch fluorescence ratio, 500 uM ATP over buffer (Cy3 cluster intensity, sum of 5 cycles each) (fold (ratio)); higher = stronger signal-on switching upon ATP binding; sequences stand for … in TCGTCGGCAGCGTCAGATGTGTATAAGAGACAGTTTTTTTTTTTTTTTTTTTTTTTTT…TC). Conditions: aptamer strand: ATP DNA aptamer (quencher-CACCTGGGGGAGTATTGCGGAGGAAGG + anchor), 100 nM annealed; ATP concentration: 500 uM.
In short: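 Cy3-labelled switching-strand clusters on a modified Illumina MiSeq flow-cell were annealed to 100 nM quencher-labelled ATP aptamer and imaged first in selection buffer, then after 15 min with 500 uM ATP at 22 °C. NaOH stripping and re-annealing separated each of five buffer/ATP cycles, and clusters outside 100-1000 RFU were excluded. The fluorescence ratio sums target-cycle Cy3 intensity over buffer-cycle Cy3 intensity per cluster and averages it per switch-domain sequence.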
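Note: ATP exposure 15 min at 22 °C before imaging.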

Sequence	switch fluorescence ratio
TGGGGAGGCT	1.04 ± 0.055
CAAAAAGATT	1.01 ± 0.017
TATCTGAACG	1.01 ± 0.037
AAGGTAATCC	1.01 ± 0.039
TCTTTAGGGA	1.02 ± 0.054
TTGACAGGGT	1.03 ± 0.07
GTTTTTTTGG	1 ± 0.018
CGTGTTTGCC	1 ± 0.02
TTGGTTTATC	1 ± 0.015
CTCGATTGTA	0.999 ± 0.048
TGATTTAGGC	0.9803 ± 0.009
GGTTTGGTGG	0.992 ± 0.028
AAAAGCTGGG	1.02 ± 0.051
TATACTAGTT	1.04 ± 0.033
GGGGATTCT	0.9936 ± 0.0094
TTTATTGGGA	1.07 ± 0.13
AGTACGTTAT	1.14 ± 0.026
AGCTTGGGAA	0.9627 ± 0.0063
GTTGTGCGGG	1.02 ± 0.0089
TTCGCGGGCT	0.996 ± 0.028
CAAAAGTAAC	1.07 ± 0.032
TAATATGGGC	1.02 ± 0.034
TTGAGGGTGC	1.01 ± 0.022
TGTTTCTCGA	0.9619 ± 0.0041
AAGGTTAATT	1 ± 0.022

Sequence	switch fluorescence ratio
CGGTAGTTCG	0.955 ± 0.038
AAAGACGCGC	0.998 ± 0.038
CCGAGGGTTA	1.34 ± 0.12
TTTGGGCCGA	0.987 ± 0.028
AATCGGGCGC	1.01 ± 0.048
TCGGTCAAAT	0.977 ± 0.011
ATTTATCTTT	1 ± 0.032
CTTCTGTGGG	1.027 ± 0.0036
GTCGGGTTTG	0.991 ± 0.014
ATGTGGACCT	1.26 ± 0.065
CCTGGCCAGC	0.978 ± 0.015
ATAGCTTCAC	1.15 ± 0.015
TATGCACTGA	1.06 ± 0.024
TTGAAGATAA	1.02 ± 0.033
ATTTAGTTTT	0.976 ± 0.013
AGCGAAATTT	1.04 ± 0.023
TTGTACGTGG	1.07 ± 0.023
GTGAGATTGC	0.95675 ± 0.0008
CGTAAAACTA	1.03 ± 0.042
AGAGTGGGTG	0.978 ± 0.013
TCGTCGCTTT	1.04 ± 0.026
ATTGTTTCTA	1 ± 0.014
GTCGTGTGGT	0.99 ± 0.045
AGGGTTTGGG	1.01 ± 0.038
ATGTAGGGG	1 ± 0.022

Sequence	switch fluorescence ratio
TAAAGGTCAG	0.996 ± 0.018
GTTTCTGTTA	0.9574 ± 0.0033
CGCGTTTCCC	1.27 ± 0.038
TTTATGAGTG	0.997 ± 0.031
AATCGTTAGG	0.969 ± 0.022
CGAGTAGAAT	1.06 ± 0.065
GATAAAGATA	1.02 ± 0.043
TGGAATTGGT	1.02 ± 0.032
ATCTGTTTTT	0.972 ± 0.0075
TCATGGGGTT	1.006 ± 0.0065
ACTGTGCTTT	1.015 ± 0.0097
CGTGAGAGTG	0.9781 ± 0.0021
ATCCATTCA	1.02 ± 0.0094
TGCAATTTTT	1.04 ± 0.077
ATTAAGCTGT	1.009 ± 0.01
TGCAACTTTT	1.01 ± 0.019
ACAGGCCAGG	1.23 ± 0.082
CGACTATAGG	1 ± 0.023
TAGGGAGGCG	0.962 ± 0.063
CGTATGCCGG	0.9999 ± 0.0091
AATTAAGGGT	0.9881 ± 0.0058
GTTAACTTTG	1.0027 ± 0.00076
CGGCGTGTAT	1 ± 0.055
GCTGCTGCAC	1.01 ± 0.049
TTTCATTGTA	1.01 ± 0.013

Sequence	switch fluorescence ratio
CGTGCACAAA	0.9815 ± 0.0059
GGTGGAAGAT	1 ± 0.045
TATTGACGGG	0.9956 ± 0.0023
GATTAATGGC	1.04 ± 0.052
CAATATTGCC	1.02 ± 0.051
TCATAAGGGA	0.997 ± 0.028
TTTTCTTTTC	1.09 ± 0.084
CGTAAAATAC	2.85 ± 0.056
TTAAAAGCTT	1.05 ± 0.024
GGTTTAGTTT	0.99 ± 0.035
GAATGGGGCC	1.01 ± 0.035
GTTACTGTGC	1.08 ± 0.025
CCCCCCGGGG	1.61 ± 0.32
TTTCGAAATG	1.01 ± 0.027
CCGGTTATAA	1.278 ± 0.009
ATTGTTGCTG	0.993 ± 0.061
ATCAGATATG	0.9974 ± 0.0033
CATTTAGCTC	1.07 ± 0.015
GGGGCTTCTG	1.03 ± 0.019
CGCATGGGCC	1.4 ± 0.019
TAAGACGGGG	1.01 ± 0.034
CTTATGAAGG	0.989 ± 0.024
TTTTGAACCA	1.05 ± 0.057
CCATGTTTGG	0.996 ± 0.028
GGTACTATT	0.991 ± 0.04
